This note sets out measurements from US20170015742A1 (published 2017).

The chains are these.
B1: 9E8.4E-SL-9A8.12 DVD-Ig (PR-1577548) (bispecific antibody, human IgG1, kappa, L234A L235A)
heavy: EVTLRESGPALVKPTQTLTLTCTFSGFSLSTYGMGVGWIRQPPGKALEWLANIWWDDDKYYNPSLKNRLTISKDTSKNQVVLTMTNMDPVDTATYYCARIESIGTTYSFDYWGQGTMVTVSSASTKGPEVQLVQSGAEVKKPGASVKVSCKASGYTFTNYGMYWVRQAPGQGLEWMGWINTETGKPIYADDFKGRVTMTTDTSTSTAYMELRSLRSDDTAVYYCARVDYDGSFWFAYWGQGTLVTVSSASTKGPSVFPLAPSSKSTSGGTAALGCLVKDYFPEPVTVSWNSGALTSGVHTFPAVLQSSGLYSLSSVVTVPSSSLGTQTYICNVNHKPSNTKVDKKVEPKSCDKTHTCPPCPAPEAAGGPSVFLFPPKPKDTLMISRTPEVTCVVVDVSHEDPEVKFNWYVDGVEVHNAKTKPREEQYNSTYRVVSVLTVLHQDWLNGKEYKCKVSNKALPAPIEKTISKAKGQPREPQVYTLPPSREEMTKNQVSLTCLVKGFYPSDIAVEWESNGQPENNYKTTPPVLDSDGSFFLYSKLTVDKSRWQQGNVFSCSVMHEALHNAYTQKSLSLSPGK
light: EFVLTQSPGTLSLSPGERATLSCERSSGDIGESYVSWYQQKPGQAPRLVIYADDQRPSGIPDRFSGSGSGTDFTLTISRLEPEDFAVYYCQSYDINIDIVFGGGTKVEIKRTVAAPSVFIFPPDTQLTQSPSSLSASVGDRVTITCRASESVSTVIHWYQQKPGKQPKLLIHGASNLESGVPSRFSGSGSGTDFTLTISSLQPEDFATYFCQQHWNDPPTFGQGTKLEIKRTVAAPSVFIFPPSDEQLKSGTASVVCLLNNFYPREAKVQWKVDNALQSGNSQESVTEQDSKDSTYSLSSTLTLSKADYEKHKVYACEVTHQGLSSPVTKSFNRGEC
B2: AB014-GS10-9E8.4 VH-VK (bispecific antibody, human IgG1, kappa, L234A L235A)
heavy: EVQLVESGGGLVQPGGSLRLSCAASGYTFTNYGMNWVRQAPGKGLEWVGWINTYTGEPTYAADFKRRFTFSLDTSKSTAYLQMNSLRAEDTAVYYCAKYPHYYGSSHWYFDVWGQGTLVTVSSASTKGPSVFPLAPSSKSTSGGTAALGCLVKDYFPEPVTVSWNSGALTSGVHTFPAVLQSSGLYSLSSVVTVPSSSLGTQTYICNVNHKPSNTKVDKKVEPKSCDKTHTCPPCPAPEAAGGPSVFLFPPKPKDTLMISRTPEVTCVVVDVSHEDPEVKFNWYVDGVEVHNAKTKPREEQYNSTYRVVSVLTVLHQDWLNGKEYKCKVSNKALPAPIEKTISKAKGQPREPQVYTLPPSREEMTKNQVSLTCLVKGFYPSDIAVEWESNGQPENNYKTTPPVLDSDGSFFLYSKLTVDKSRWQQGNVFSCSVMHEALHNAYTQKSLSLSPGKGGSGGGGSGGEVTLRESGPALVKPTQTLTLTCTFSGFSLSTYGMGVGWIRQPPGKALEWLANIWWDDDKYYNPSLKNRLTISKDTSKNQVVLTMTNMDPVDTATYYCARIESIGTTYSFDYWGQGTMVTVSSGGGGSGGGGSGGGGSEIVLTQSPGTLSLSPGERATLSCERSSGDIGDSYVSWYQQKPGQAPRLVIYADDQRPSGIPDRFSGSGSGTDFTLTISRLEPEDFAVYYCQSYDINIDIVFGGGTKVEIK
light: not shown
B3: AB014-GS15-9E8.4 VH-VK (bispecific antibody, human IgG1, kappa, L234A L235A)
heavy: EVQLVESGGGLVQPGGSLRLSCAASGYTFTNYGMNWVRQAPGKGLEWVGWINTYTGEPTYAADFKRRFTFSLDTSKSTAYLQMNSLRAEDTAVYYCAKYPHYYGSSHWYFDVWGQGTLVTVSSASTKGPSVFPLAPSSKSTSGGTAALGCLVKDYFPEPVTVSWNSGALTSGVHTFPAVLQSSGLYSLSSVVTVPSSSLGTQTYICNVNHKPSNTKVDKKVEPKSCDKTHTCPPCPAPEAAGGPSVFLFPPKPKDTLMISRTPEVTCVVVDVSHEDPEVKFNWYVDGVEVHNAKTKPREEQYNSTYRVVSVLTVLHQDWLNGKEYKCKVSNKALPAPIEKTISKAKGQPREPQVYTLPPSREEMTKNQVSLTCLVKGFYPSDIAVEWESNGQPENNYKTTPPVLDSDGSFFLYSKLTVDKSRWQQGNVFSCSVMHEALHNAYTQKSLSLSPGKGGSGGGGSGGGGSGGEVTLRESGPALVKPTQTLTLTCTFSGFSLSTYGMGVGWIRQPPGKALEWLANIWWDDDKYYNPSLKNRLTISKDTSKNQVVLTMTNMDPVDTATYYCARIESIGTTYSFDYWGQGTMVTVSSGGGGSGGGGSGGGGSEIVLTQSPGTLSLSPGERATLSCERSSGDIGDSYVSWYQQKPGQAPRLVIYADDQRPSGIPDRFSGSGSGTDFTLTISRLEPEDFAVYYCQSYDINIDIVFGGGTKVEIK
light: not shown
B4: AB014-GS10-9E8.4 VK-VH (bispecific antibody, human IgG1, kappa, L234A L235A)
heavy: EVQLVESGGGLVQPGGSLRLSCAASGYTFTNYGMNWVRQAPGKGLEWVGWINTYTGEPTYAADFKRRFTFSLDTSKSTAYLQMNSLRAEDTAVYYCAKYPHYYGSSHWYFDVWGQGTLVTVSSASTKGPSVFPLAPSSKSTSGGTAALGCLVKDYFPEPVTVSWNSGALTSGVHTFPAVLQSSGLYSLSSVVTVPSSSLGTQTYICNVNHKPSNTKVDKKVEPKSCDKTHTCPPCPAPEAAGGPSVFLFPPKPKDTLMISRTPEVTCVVVDVSHEDPEVKFNWYVDGVEVHNAKTKPREEQYNSTYRVVSVLTVLHQDWLNGKEYKCKVSNKALPAPIEKTISKAKGQPREPQVYTLPPSREEMTKNQVSLTCLVKGFYPSDIAVEWESNGQPENNYKTTPPVLDSDGSFFLYSKLTVDKSRWQQGNVFSCSVMHEALHNAYTQKSLSLSPGKGGSGGGGSGGEIVLTQSPGTLSLSPGERATLSCERSSGDIGDSYVSWYQQKPGQAPRLVIYADDQRPSGIPDRFSGSGSGTDFTLTISRLEPEDFAVYYCQSYDINIDIVFGGGTKVEIKGGGGSGGGGSGGGGSEVTLRESGPALVKPTQTLTLTCTFSGFSLSTYGMGVGWIRQPPGKALEWLANIWWDDDKYYNPSLKNRLTISKDTSKNQVVLTMTNMDPVDTATYYCARIESIGTTYSFDYWGQGTMVTVSS
light: not shown
B5: 9E8.4E-LS-9A8.12 (bispecific antibody, human IgG1, kappa, L234A L235A)
heavy: EVTLRESGPALVKPTQTLTLTCTFSGFSLSTYGMGVGWIRQPPGKALEWLANIWWDDDKYYNPSLKNRLTISKDTSKNQVVLTMTNMDPVDTATYYCARIESIGTTYSFDYWGQGTMVTVSSASTKGPSVFPLAPEVQLVQSGAEVKKPGASVKVSCKASGYTFTNYGMYWVRQAPGQGLEWMGWINTETGKPIYADDFKGRVTMTTDTSTSTAYMELRSLRSDDTAVYYCARVDYDGSFWFAYWGQGTLVTVSSASTKGPSVFPLAPSSKSTSGGTAALGCLVKDYFPEPVTVSWNSGALTSGVHTFPAVLQSSGLYSLSSVVTVPSSSLGTQTYICNVNHKPSNTKVDKKVEPKSCDKTHTCPPCPAPEAAGGPSVFLFPPKPKDTLMISRTPEVTCVVVDVSHEDPEVKFNWYVDGVEVHNAKTKPREEQYNSTYRVVSVLTVLHQDWLNGKEYKCKVSNKALPAPIEKTISKAKGQPREPQVYTLPPSREEMTKNQVSLTCLVKGFYPSDIAVEWESNGQPENNYKTTPPVLDSDGSFFLYSKLTVDKSRWQQGNVFSCSVMHEALHNAYTQKSLSLSPGK
light: EFVLTQSPGTLSLSPGERATLSCERSSGDIGESYVSWYQQKPGQAPRLVIYADDQRPSGIPDRFSGSGSGTDFTLTISRLEPEDFAVYYCQSYDINIDIVFGGGTKVEIKRTVAAPDTQLTQSPSSLSASVGDRVTITCRASESVSTVIHWYQQKPGKQPKLLIHGASNLESGVPSRFSGSGSGTDFTLTISSLQPEDFATYFCQQHWNDPPTFGQGTKLEIKRTVAAPSVFIFPPSDEQLKSGTASVVCLLNNFYPREAKVQWKVDNALQSGNSQESVTEQDSKDSTYSLSSTLTLSKADYEKHKVYACEVTHQGLSSPVTKSFNRGEC
B6: 9E8.4E-GS-9A8.12 (bispecific antibody, human IgG1, kappa, L234A L235A)
heavy: EVTLRESGPALVKPTQTLTLTCTFSGFSLSTYGMGVGWIRQPPGKALEWLANIWWDDDKYYNPSLKNRLTISKDTSKNQVVLTMTNMDPVDTATYYCARIESIGTTYSFDYWGQGTMVTVSSGGGGSGGGGSEVQLVQSGAEVKKPGASVKVSCKASGYTFTNYGMYWVRQAPGQGLEWMGWINTETGKPIYADDFKGRVTMTTDTSTSTAYMELRSLRSDDTAVYYCARVDYDGSFWFAYWGQGTLVTVSSASTKGPSVFPLAPSSKSTSGGTAALGCLVKDYFPEPVTVSWNSGALTSGVHTFPAVLQSSGLYSLSSVVTVPSSSLGTQTYICNVNHKPSNTKVDKKVEPKSCDKTHTCPPCPAPEAAGGPSVFLFPPKPKDTLMISRTPEVTCVVVDVSHEDPEVKFNWYVDGVEVHNAKTKPREEQYNSTYRVVSVLTVLHQDWLNGKEYKCKVSNKALPAPIEKTISKAKGQPREPQVYTLPPSREEMTKNQVSLTCLVKGFYPSDIAVEWESNGQPENNYKTTPPVLDSDGSFFLYSKLTVDKSRWQQGNVFSCSVMHEALHNAYTQKSLSLSPGK
light: EFVLTQSPGTLSLSPGERATLSCERSSGDIGESYVSWYQQKPGQAPRLVIYADDQRPSGIPDRFSGSGSGTDFTLTISRLEPEDFAVYYCQSYDINIDIVFGGGTKVEIKRGGSGGGGSGDTQLTQSPSSLSASVGDRVTITCRASESVSTVIHWYQQKPGKQPKLLIHGASNLESGVPSRFSGSGSGTDFTLTISSLQPEDFATYFCQQHWNDPPTFGQGTKLEIKRTVAAPSVFIFPPSDEQLKSGTASVVCLLNNFYPREAKVQWKVDNALQSGNSQESVTEQDSKDSTYSLSSTLTLSKADYEKHKVYACEVTHQGLSSPVTKSFNRGEC
B7: AB014-GS6-9E8.4 VH-VK (bispecific antibody, human IgG1, kappa, L234A L235A)
heavy: EVQLVESGGGLVQPGGSLRLSCAASGYTFTNYGMNWVRQAPGKGLEWVGWINTYTGEPTYAADFKRRFTFSLDTSKSTAYLQMNSLRAEDTAVYYCAKYPHYYGSSHWYFDVWGQGTLVTVSSASTKGPSVFPLAPSSKSTSGGTAALGCLVKDYFPEPVTVSWNSGALTSGVHTFPAVLQSSGLYSLSSVVTVPSSSLGTQTYICNVNHKPSNTKVDKKVEPKSCDKTHTCPPCPAPEAAGGPSVFLFPPKPKDTLMISRTPEVTCVVVDVSHEDPEVKFNWYVDGVEVHNAKTKPREEQYNSTYRVVSVLTVLHQDWLNGKEYKCKVSNKALPAPIEKTISKAKGQPREPQVYTLPPSREEMTKNQVSLTCLVKGFYPSDIAVEWESNGQPENNYKTTPPVLDSDGSFFLYSKLTVDKSRWQQGNVFSCSVMHEALHNAYTQKSLSLSPGKGGSGGGEVTLRESGPALVKPTQTLTLTCTFSGFSLSTYGMGVGWIRQPPGKALEWLANIWWDDDKYYNPSLKNRLTISKDTSKNQVVLTMTNMDPVDTATYYCARIESIGTTYSFDYWGQGTMVTVSSGGGGSGGGGSGGGGSEIVLTQSPGTLSLSPGERATLSCERSSGDIGDSYVSWYQQKPGQAPRLVIYADDQRPSGIPDRFSGSGSGTDFTLTISRLEPEDFAVYYCQSYDINIDIVFGGGTKVEIK
light: not shown

One assay deals with recombinant human PDGF-BB (human, UniProt P01127 82-190). The assay can be described thus: cell-based or functional assay.
Target sequence in this assay (P01127 82-190 limits assumed): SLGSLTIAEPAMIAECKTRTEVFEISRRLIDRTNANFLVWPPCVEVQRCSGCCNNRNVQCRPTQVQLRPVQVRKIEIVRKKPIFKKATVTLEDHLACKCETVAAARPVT
In the case of B1, the “NIH-3T3 hPDGF-BB Potency IC50” value came to 147 pM.

The next assay shares this target. The assay can be described thus: cell-based or functional assay. This is another data set of the same source.
Target sequence in this assay (P01127 82-190 limits assumed): as above
For B2, the “Potency IC50 (nM) NIH-3T3 hPDGF-BB” value was found to be 0.063 nM.
The same measure, in the same setting: then B3, with 0.066 nM.
Take B4: the “Potency IC50 (nM) NIH-3T3 hPDGF-BB” value came out at 0.074 nM.
Still for that read-out and setting: in the case of B5 it was 0.066 nM; in that of B6, 0.327 nM; in that of B7, 0.222 nM.

The target of the next assay is recombinant human VEGF165 (human, UniProt P15692 207-395). The assay can be described thus: cell-based or functional assay.
Chain of recombinant human VEGF165 (P15692 other isoform, or with tags, fused parts or gaps limits assumed): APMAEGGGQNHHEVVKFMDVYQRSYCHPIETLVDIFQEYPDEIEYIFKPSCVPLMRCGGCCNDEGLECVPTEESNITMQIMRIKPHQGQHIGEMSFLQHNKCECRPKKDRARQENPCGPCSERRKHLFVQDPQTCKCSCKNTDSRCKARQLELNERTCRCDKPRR
As to B2, the “Potency IC50 (nM) HMVEC-d hVEGF165” value amounted to 0.095 nM.
Same read-out and setting: then B3, with 0.13 nM; and B4, with 0.086 nM; and B7, with 0.124 nM.
